The Kd is the concentration at which binding is half-saturated. Usually IC50 stands for the point on the concentration scale where inhibition reaches its midpoint.

Four molecules from patent US20230025129A1 (KYMAB, published 2023) can be followed below.

Where a chain is given by its changes, count along the chain named. Names may count otherwise.

To fix the notation:
T1: human matriptase-2 ECD protein his tag (human, UniProt Q8IU80 78-811)
T1 construct: also called human MTP-2 ECD; huMTP-2
T1 sequence: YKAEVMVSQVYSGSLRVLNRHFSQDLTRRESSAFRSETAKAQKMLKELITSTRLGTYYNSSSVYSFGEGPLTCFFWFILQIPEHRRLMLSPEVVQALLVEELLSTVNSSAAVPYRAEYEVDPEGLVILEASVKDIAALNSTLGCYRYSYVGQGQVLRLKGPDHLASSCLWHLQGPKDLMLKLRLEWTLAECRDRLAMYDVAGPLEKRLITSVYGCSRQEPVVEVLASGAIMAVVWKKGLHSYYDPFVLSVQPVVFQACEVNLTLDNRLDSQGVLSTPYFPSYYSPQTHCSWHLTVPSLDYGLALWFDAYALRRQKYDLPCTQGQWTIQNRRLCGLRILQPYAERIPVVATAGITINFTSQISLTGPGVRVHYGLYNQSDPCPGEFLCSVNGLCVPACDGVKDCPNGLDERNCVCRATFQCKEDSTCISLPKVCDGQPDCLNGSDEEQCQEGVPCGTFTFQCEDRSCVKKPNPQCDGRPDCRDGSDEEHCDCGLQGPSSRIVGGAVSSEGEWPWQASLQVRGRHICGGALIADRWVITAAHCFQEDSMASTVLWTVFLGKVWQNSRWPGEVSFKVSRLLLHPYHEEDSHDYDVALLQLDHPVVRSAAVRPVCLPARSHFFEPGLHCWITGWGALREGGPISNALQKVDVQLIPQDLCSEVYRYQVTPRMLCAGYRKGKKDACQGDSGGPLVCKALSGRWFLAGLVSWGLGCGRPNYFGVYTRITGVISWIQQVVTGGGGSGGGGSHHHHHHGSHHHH

T2: cyno matriptase-2 ECD protein his tag (cynomolgus, UniProt Q8IU80 84-811 (human entry))
T2 construct: aa 73-800 of A0A2K5VAP0 with C-terminal linker and His tag; also called cynomolgus MTP-2 ECD
T2 chain: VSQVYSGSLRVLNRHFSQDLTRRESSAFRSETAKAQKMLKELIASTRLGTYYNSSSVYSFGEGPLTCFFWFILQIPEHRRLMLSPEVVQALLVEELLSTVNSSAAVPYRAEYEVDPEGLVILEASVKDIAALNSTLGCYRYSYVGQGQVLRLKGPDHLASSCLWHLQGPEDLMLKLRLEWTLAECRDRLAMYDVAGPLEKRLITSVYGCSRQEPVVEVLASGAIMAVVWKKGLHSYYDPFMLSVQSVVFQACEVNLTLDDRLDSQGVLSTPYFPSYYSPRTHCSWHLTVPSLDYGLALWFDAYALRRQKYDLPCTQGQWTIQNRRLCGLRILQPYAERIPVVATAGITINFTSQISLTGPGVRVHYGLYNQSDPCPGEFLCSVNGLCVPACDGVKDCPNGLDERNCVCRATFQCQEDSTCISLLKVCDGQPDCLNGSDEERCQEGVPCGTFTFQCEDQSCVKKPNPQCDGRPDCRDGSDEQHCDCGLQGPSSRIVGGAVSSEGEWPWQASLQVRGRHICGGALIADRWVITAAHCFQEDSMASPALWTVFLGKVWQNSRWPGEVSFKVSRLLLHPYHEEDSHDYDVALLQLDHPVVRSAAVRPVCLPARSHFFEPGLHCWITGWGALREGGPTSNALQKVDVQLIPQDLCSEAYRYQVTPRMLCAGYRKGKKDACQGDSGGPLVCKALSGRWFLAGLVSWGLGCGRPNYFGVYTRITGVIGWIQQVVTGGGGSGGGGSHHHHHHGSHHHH

B1: NORI-011 (antibody, human IgG4 S228P, lambda)
heavy: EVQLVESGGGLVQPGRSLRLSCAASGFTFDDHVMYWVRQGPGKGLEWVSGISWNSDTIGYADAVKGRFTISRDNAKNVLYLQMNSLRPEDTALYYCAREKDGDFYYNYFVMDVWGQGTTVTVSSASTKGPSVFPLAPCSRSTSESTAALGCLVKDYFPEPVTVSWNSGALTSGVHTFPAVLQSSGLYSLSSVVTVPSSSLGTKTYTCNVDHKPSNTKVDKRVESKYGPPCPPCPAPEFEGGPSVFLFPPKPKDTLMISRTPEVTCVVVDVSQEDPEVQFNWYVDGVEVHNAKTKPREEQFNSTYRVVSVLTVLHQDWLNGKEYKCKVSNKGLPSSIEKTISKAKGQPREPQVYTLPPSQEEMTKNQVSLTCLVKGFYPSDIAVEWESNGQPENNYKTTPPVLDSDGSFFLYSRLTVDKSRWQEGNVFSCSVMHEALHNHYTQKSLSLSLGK
light: QSALTQPPSASGSPGQSVTISCTGTSSDVGFYNFVSWYQQHPDKAPKVMIYEVSKRPSGVPDRFSGSKSGNTASLTVSGLQAEDEADYYCSSYAGSNKVVFGGGTKLTVLGQPKAAPSVTLFPPSSEELQANKATLVCLISDFYPGAVTVAWKADSSPVKAGVETTTPSKQSNNKYAASSYLSLTPEQWKSHRSYSCQVTHEGSTVEKTVAPTECS
notes: human IgG4PE, lambda; NORI-010 with a P124S mutation in the VH domain
B2: NORI-006 (antibody, human IgG4 S228P, kappa, V domains shown)
VH: EVQLVESGGGLIKPGRSLRLSCTGSGFTFGDFGLSWFRQAPGKGLEWISFIRSKPYGGTTDYAASVKGRFTISRDDSKNVAYLQMNSLKTEDTAVYYCARNEILTGYYIFDYWGQGTLVTVSS
VL: DIQMTQSPSSLSASLGDRVTITCQASQDINNYLNWYQVQPGKAPKLLIFDASILETGVPSRFSGSGSGTDFSFTISSLQPEDIATYYCQQYDNLPLTFGGGTKVDFKR
notes: human IgG4PE, kappa
B3: NORI-003 (antibody, human IgG4 S228P, kappa, V domains shown)
VH: EVQLVESGGGLVKPGRSLRLSCTGSGFTFGDFGMSWFRQAPGKGLEWVGFIRSKPYGGTTDYAPSVRGRFSISRDDSKGIVYLQMNSLRTEDTAVYYCSRNEILTGYYIFDYWGQGTLVTVSS
VL: B2 VL with Q27H, N30T, N34I, V38Q, Q39K, K45R, S72T, I83F, D92Y, F106I
notes: human IgG4PE, kappa; NORI-002 with the free cysteine of the VH domain mutated (printed as 'C49C')
B4: NORI-008 (antibody, human IgG4 S228P, kappa, V domains shown)
VH: QVQLQESGPGLVKPSETLSLTCSVSGGSVSSGRYYWTWIRQPPGKGLEWIGYISNSGNTNYNPSLKSRVTISLDTSKKQFSLSLSAVTAADTAVYYCARGFIYDYWFDPWGQGSLVTVSS
VL: DSQMTQSPSSLSASVGDRVTITCQASQDIDNYLNWYQQRPGKAPKLLIYDASKLETGVPSRFSGSGSGTDFTFTISSLQPEDFATYYCQQYGNLPITFGQGTRLDIKR
notes: human IgG4PE, kappa, in the in vitro assays; a mouse IgG1 format was used in one in vivo study only; also called NORI-008 hulgG4PE; NORI-008 IgG

The first test concerns the target T1, human matriptase-2 ECD protein his tag. In words: SPR, his-tagged MTP-2 ECD protein (Table W). Here is the method:
(§1) Off-rate screening was performed by surface plasmon resonance (SPR), using a Biacore 8K system (GE Healthcare). Anti-human Fc mix (˜1000 RU) were immobilised in both active and reference channels in HBS-P+ buffer (GE BR100671) pH 7.4. Anti-MTP-2 hulgG4PE antibodies were then captured for 60 sec at 10 μl/min at 1 μg/ml concentration (approximatively 35 and 50 RU were captured) only on the active channel. MTP-2 ECD protein analytes were then injected (at 100, 25, 6.25, 1.56 and 0 nM concentrations) for 120 sec (association time) at 30 μl/min and dissociation monitored for 600 sec. Multiple cycle kinetics mode was used with all 8 channels being used. Reference and background were subtracted from the sensorgrams for each antibody and data was fitted using a 1:1 interaction model in the Biacore evaluation software. Rmax, ka, kd globally fitted, RI=0.
(§2) NORI-011, NORI-008, NORI-003 and NORI-006 were all found to have cross-reactive binding to human, mouse, cyno and rat MTP-2 ECD proteins. […] The true KD value for NORI-008 could not be measured accurately for human or mouse MTP-2 due to a very slow off-rate.
For orientation: Surface plasmon resonance follows binding to a sensor surface in real time, without labels.
The molecule B1 gave a Kd of 5.61 nM.
Still for that read-out and setting: the result for B2 reads 2.93 nM.
Same read-out and setting: the result for B3 reads 5.24 nM.

The next test concerns the target T2, cyno matriptase-2 ECD protein his tag. The test can be described thus: SPR, his-tagged MTP-2 ECD protein (Table W). Here is the method:
as §1, §2
As for B4, binding was put at a Kd of 0.0104 nM.
Same read-out and setting: the result for B1 reads 2.17 nM; that for B2, 0.824 nM; that for B3, 1.76 nM.

The target in a further test is T1, human matriptase-2 ECD protein his tag. The test can be described thus: HTRF competition with 647-labelled aprotinin for human MTP-2 protein. The source says: Aprotinin is a pan serine protease inhibitor and is known to occupy the active site of serine proteases. A HTRF competition assay against labelled aprotinin confirmed that NORI-003, NORI-006, NORI-008 and NORI-011 were binding at or near this same site and competed with aprotinin for binding to human MTP-2 protein. […] This was confirmed by their lack of competition of aprotinin against moMTP-2 while IC50 values in the enzymatic assay were similar to those of NORI-011. […] FIG. 8. Table L.
Antibodies were titrated into HTRF buffer (DPBS (Gibco—14190144) with 0.1% BSA (Sigma—A7906) and potassium fluoride 0.53M (Sigma—60240-250 G)) at 4× conc with a starting concentration of 200 nM. 5 μL/w of antibodies were added to 384-well white plates (Greiner—784904). Purified proteins of huMTP-2 and moMTP-2 were diluted into HTRF buffer (huMTP-2=40 nM and moMTP-2=240 nM) 4× final conc and plate 5 μL/w. Anti-MTP-2 mAb (NORI-037) in molgG1 backbone was then diluted to 1.2 nM 4× final conc with DELFIA Eu-N1 Rabbit Anti-Mouse-IgG antibody (AD0207) at a 1:1000 dilution 4× final conc in HTRF buffer. Finally, dilute 647-labelled Aprotinin (Sigma—A3428) in HTRF buffer to 20 nM 4× final conc and plate 5 μL/w. Incubate plates for 3 hours or more at RT in the dark. Read plate using HTRF 100 flashes protocol on the EnVision plate reader at 1H 2H and 3H. (Ex: 340 nm Em1: 620 nm Em2: 665 nm).
On the technique in general: Time-resolved FRET reads energy transfer from a long-lived donor to a nearby acceptor.
The molecule B4 gave an IC50 of 0.256 nM.
Same read-out and setting: the result for B1 reads 17 nM.
Molecule B2 returned an IC50 of 13.9 nM.
On the same count and under the same terms, the result for B3 reads 7.28 nM.
